Assay [1] deals with T1, GPR77 (Homo sapiens, UniProt Q9P296).
T1 construct: gB:CD4 and gB:GPR77, express the full-length human membrane proteins at the gB locus under the control of native gB promoter; made in house; host or cells: HFT cells (telomerase-immortalised human foreskin fibroblasts) infected with recombinant HSV-1; purified extracellular virions
Put plainly: Ligand binding assay on VirD Array. Particulars: C5a at 1 μM, gB:GPR77 virions on VirD Array. The method, then: (§1) Ligand binding assay on VirD Array. The VirD Array was blocked in TBST with 1% BSA for 1 h at room temperature with gentle shaking. C5a (Abcam) was labeled with Cy5 NHS Easter (GE Healthcare) and incubated on the VirD Array at 1 μM in ligand binding buffer (1 mM MgCl2, 2 mM CalCl2, 0.2% BSA, and 25 mM HEPES, pH 7.4) at room temperature for 1 h with gentle shaking. The array was washed for […] in ice-cold washing buffer (0.5 M NaCl in 10 mM HEPES, pH 7.4) for 3 times with shaking, dried by spinning, and scanned as described above.

Assay [2] concerns GPR77. As to the kind of experiment: Ligand binding assay on VirD Array. Also on record: species or system human. The settings on record: C5a at 1 μM. The method, then: as §1

T1 sequence (Q9P296 whole entry): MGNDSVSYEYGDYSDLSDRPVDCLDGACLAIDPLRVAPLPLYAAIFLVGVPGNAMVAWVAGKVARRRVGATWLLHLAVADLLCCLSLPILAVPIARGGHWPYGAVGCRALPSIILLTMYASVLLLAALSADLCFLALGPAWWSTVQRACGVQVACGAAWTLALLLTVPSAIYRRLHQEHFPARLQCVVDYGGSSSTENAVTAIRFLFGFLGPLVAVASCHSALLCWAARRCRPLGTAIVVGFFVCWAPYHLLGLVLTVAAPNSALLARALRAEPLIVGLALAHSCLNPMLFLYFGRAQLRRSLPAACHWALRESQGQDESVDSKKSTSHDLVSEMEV

B1: C5a: complement anaphylatoxin C5a, canonical ligand of GPR77 (Abcam), labeled with Cy5 (protein)
chain: TLQKKIEEIAAKYKHSVVKKCCYDGACVNNDETCEQRAARISLGPRCIKAFTECCVVASQLRANISHKDMQLGR
On to B1, for which the “binding of Cy5-labeled C5a to gB:GPR77 virions” value in the assay with GPR77 [1] was “weaker binding signals”. For the same molecule, the “binding of Cy5-labeled C5a to GPR77-gC virions” value in the assay with GPR77 [2] (GPR77-gC virions on VirD Array) was “strong binding activity”. Moreover, the “binding of Cy5-labeled C5a to other virions” value with GPR77 [2] (other virions on VirD Array (specificity)) is “no detectable signals”.

The values are drawn from patent US10208290B2, “Virion display array for profiling functions and interactions of human membrane proteins” (THE JOHNS HOPKINS UNIVERSITY, priority 2013, dated 2019).
